According to patent US20230190718A1, “METHODS FOR THE TREATMENT OF PANCREATITIS AND PREVENTION OF PANCREATIC CANCER” (BOARD OF REGENTS, THE UNIVERSITY OF TEXAS SYSTEM, priority 2020, published 2023):
Entries after “also recorded” stand apart in the source; their conditions may differ.

Columns and labels:
[1] = tested on: Caerulein-induced pancreatitis; assay: Pretreatment with ADM inducers in caerulein-induced pancreatitis: histology (ADM) and CD45 infiltration; type: in vivo, mice; settings: EGF 1.2 mg/kg i.p., two injections a day for four days, before caerulein; 24 hrs after caerulein; compared with sulindac
Description: Epigenetic modifiers: Recently, the emerging role of epigenetic regulation has led to the development of a wide spectrum of small molecules targeting selectively bromodomain and extra-terminal (BET) protein family which are currently under evaluation in preclinical model of hematological malignancies and solid tumors (Asangani et al., 2014; Delmore et al., 2011; Filippakopoulos et al., 2010). Leveraging the persistent chromatin modifications induced by an acute inflammatory event, the possibility of limiting the detrimental effects of repeated pancreatitis was tested through the administration of INCB054329, a BRD4 inhibitor currently in phase I-II clinical studies in patients with advanced malignancies (Falchook et al., 2019).
(§1) Induction of acute pancreatitis. […] Control mice received injections of pyrogen-free PBS. Mice were examined daily for health conditions and sacrificed at the indicated time points by CO2 asphyxiation and cervical dislocation.
DAPI nuclear counterstaining was also performed.

[2] = tested on: repeated caerulein-induced pancreatitis in iKRAS animals; assay: Pharmacological modulation of ADM in iKRAS mice rechallenged with caerulein (repeated pancreatitis); type: in vivo
Procedure: To explore the hypothesis that ADM is a physiologic, fast and reversible adaptation mediated by epithelial memory that limits the detrimental effects of repeated pancreatitis, the effects of pharmacological modulation of ADM was evaluated in iKRAS animals subjected to repeated inflammation.
as §1
For ADM quantification two hematoxylin/eosin-stained 10×-magnification fields of whole-mount pancreata from two mice each experimental group were analyzed with ImageJ. ADM areas, expressed in pixels, were normalized to control (rechallenged) mice considered as reference.
Images, then, were analyzed with ImageJ and CC3 specific signal, expressed as area (pixels), was normalized to total pancreatic parenchyma using DAPI. From six to nine 4×-magnification fields of whole-mount pancreata from three mice each experimental group were analyzed.

[3] = EGF at pharmacological doses before induction of pancreatitis
[4] = iKRAS mice pretreated before and during CAE rechallenge, p<0.01

B1: EGF (protein, UniProt P01133 23-1207, looked up)
Pro-epidermal growth factor: PQHWSCPEGTLAGNGNSTCVGPAPFLIFSHGNSIFRIDTEGTNYEQLVVDAGVSVIMDFHYNEKRIYWVDLERQLLQRVFLNGSRQERVCNIEKNVSGMAINWINEEVIWSNQQEGIITVTDMKGNNSHILLSALKYPANVAVDPVERFIFWSSEVAGSLYRADLDGVGVKALLETSEKITAVSLDVLDKRLFWIQYNREGSNSLICSCDYDGGSVHISKHPTQHNLFAMSLFGDRIFYSTWKMKTIWIANKHTGKDMVRINLHSSFVPLGELKVVHPLAQPKAEDDTWEPEQKLCKLRKGNCSSTVCGQDLQSHLCMCAEGYALSRDRKYCEDVNECAFWNHGCTLGCKNTPGSYYCTCPVGFVLLPDGKRCHQLVSCPRNVSECSHDCVLTSEGPLCFCPEGSVLERDGKTCSGCSSPDNGGCSQLCVPLSPVSWECDCFPGYDLQLDEKSCAASGPQPFLLFANSQDIRHMHFDGTDYGTLLSQQMGMVYALDHDPVENKIYFAHTALKWIERANMDGSQRERLIEEGVDVPEGLAVDWIGRRFYWTDRGKSLIGRSDLNGKRSKIITKENISQPRGIAVHPMAKRLFWTDTGINPRIESSSLQGLGRLVIASSDLIWPSGITIDFLTDKLYWCDAKQSVIEMANLDGSKRRRLTQNDVGHPFAVAVFEDYVWFSDWAMPSVMRVNKRTGKDRVRLQGSMLKPSSLVVVHPLAKPGADPCLYQNGGCEHICKKRLGTAWCSCREGFMKASDGKTCLALDGHQLLAGGEVDLKNQVTPLDILSKTRVSEDNITESQHMLVAEIMVSDQDDCAPVGCSMYARCISEGEDATCQCLKGFAGDGKLCSDIDECEMGVPVCPPASSKCINTEGGYVCRCSEGYQGDGIHCLDIDECQLGEHSCGENASCTNTEGGYTCMCAGRLSEPGLICPDSTPPPHLREDDHHYSVRNSDSECPLSHDGYCLHDGVCMYIEALDKYACNCVVGYIGERCQYRDLKWWELRHAGHGQQQKVIVVAVCVVVLVMLLLLSLWGAHYYRTQKLLSKNPKNPYEESSRDVRSRRPADTEDGMSSCPQPWFVVIKEHQDLKNGGQPVAGEDGQAADGSMQPTSWRQEPQLCGMGTEQGCWIPVSSDKGSCPQVMERSFHMPSYGTQTLEGGVEKPHSLLSANPLWQQRALDPPHQMELTQ
modifications: Pro-epidermal growth factor
notes: growth factor used as MAPK agonist / ADM inducer
- infiltration of CD45 cells (marker of inflammation) [1]: almost completely suppressed; also recorded: significant decrease of CD45 infiltration
- ADM formation [2, 3]: largely promoted ADM formation
- tissue damage, evaluated as number of cells positive for cleaved caspase 3 [2, 3]: strong reduction of tissue damage
- decreased tissue damage as indicated by CC3 immunostaining [2, 4]: ~8 fold
- increase of ADM formation (relative area) with respect to control mice rechallenged with CAE alone [2, 4]: ~3 fold
